We go through one molecule from US20190144507A1 (GlaxoSmithKline, published 2019).

For this experiment, the target named is T1, VZV gH (VZV (strain ), UniProt Q775J3 18-841).
T1 sequence: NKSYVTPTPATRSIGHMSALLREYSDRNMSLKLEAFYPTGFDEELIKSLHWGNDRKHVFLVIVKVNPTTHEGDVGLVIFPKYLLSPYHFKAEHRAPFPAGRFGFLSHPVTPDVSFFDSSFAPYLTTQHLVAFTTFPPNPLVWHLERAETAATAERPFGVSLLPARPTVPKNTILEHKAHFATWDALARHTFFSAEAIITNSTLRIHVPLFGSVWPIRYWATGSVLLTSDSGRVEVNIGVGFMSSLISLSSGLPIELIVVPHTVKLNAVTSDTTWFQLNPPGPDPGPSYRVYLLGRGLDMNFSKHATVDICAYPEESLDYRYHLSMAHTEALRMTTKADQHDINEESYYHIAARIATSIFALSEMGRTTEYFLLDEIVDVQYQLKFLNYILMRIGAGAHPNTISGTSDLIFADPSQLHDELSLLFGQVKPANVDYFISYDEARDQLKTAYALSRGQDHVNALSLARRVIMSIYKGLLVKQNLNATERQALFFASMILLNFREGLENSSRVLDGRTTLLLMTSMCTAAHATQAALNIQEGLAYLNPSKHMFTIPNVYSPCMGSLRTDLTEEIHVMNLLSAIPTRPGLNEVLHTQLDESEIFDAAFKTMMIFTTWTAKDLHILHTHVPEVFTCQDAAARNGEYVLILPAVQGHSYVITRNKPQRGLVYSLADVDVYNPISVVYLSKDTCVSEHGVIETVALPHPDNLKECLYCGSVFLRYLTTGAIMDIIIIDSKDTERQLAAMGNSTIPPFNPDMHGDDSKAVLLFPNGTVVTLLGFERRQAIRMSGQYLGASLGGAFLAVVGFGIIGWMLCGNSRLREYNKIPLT
Put plainly: immunofluorescence with antibody SG3 on transfected BHK-V cells.

B1: VZV gL (other)
chain: LHLQDDTPLFFGAKPLSDVSLIITEPCVSSVYEAWDYAAPPVSNLSEALSGIVVKTKCPVPEVILWFKDKQMAYWTNPYVTLKGLTQSVGEEHKSGDIRDALLDALSGVWVDSTPSSTNIPENGCVWGADRLFQRVCQ
As for B1, the binding result is recorded as “binds”.
